The target in the assay is S protein of SARS-CoV-2 wild strain JPN/TY/WK-521 (on infectious virus) (SARS-CoV-2, UniProt P0DTC2 14-1273). The experiment in a line: cell-based or functional assay.

B1: EV053273 (antibody, V domains shown)
VH: QVQLVQSGAEVKEPGTSVKVSCKASGYIFTGYYIHWVRQAPGQGLEWMGWINPNSGGRNYTQKFQGRVTMTRDKSISTVYMELSGLRSDDTAIYYCARDNSWSTVQFCLDYWGQGTLVTVSS
VL: QSALTQPPSASGSPGQSVTISCTGTSSDVGSYNYVSWYQQYPGKAPKLMIYEVSKRPSGVPDRFSGSKSGNTASLTVSGLQAEDEADYYCSSYGGSNNLVFGGGTKLTVLG
Turning to B1, the “中和活性 IC50 (inhibition of infection of VeroE6/TMPRSS2 cells)” value is no more than 10 ng/mL.

Values taken from patent WO2022250107A1 (dated 2022).
